From article PMC10582078

Experiments:
IP/IB, baseline = details: glycan lost; control: WT NF-L
[1] = IFA of co-assembled filaments, SW13 vim− cells; details: glycan lost; control: WT NF-L
[2] = live-cell imaging, rat hippocampal neuron axons; details: glycan lost; control: WT NF-L
IP/IB = details: glycan gained; control: WT NF-L without OGT
[3] = IFA of filaments, NEFL−/− SH-SY5Y; details: glycan gained; control: WT NF-L without OGT
[4] = differential extraction, urea-fraction NF-L, 293T; details: glycan gained; control: WT NF-L without OGT
[5] = differential extraction, NEFL−/− 293T, no OGT; details: glycan lost; control: WT NF-L without OGT

B1: neurofilament-light (NF-L): NF-L4A (protein)
parent chain: MSSFSYEPYYSTSYKRRYVETPRVHISSVRSGYSTARSAYSSYSAPVSSSLSVRRSYSSSSGSLMPSLENLDLSQVAAISNDLKSIRTQEKAQLQDLNDRFASFIERVHELEQQNKVLEAELLVLRQKHSEPSRFRALYEQEIRDLRLAAEDATNEKQALQGEREGLEETLRNLQARYEEEVLSREDAEGRLMEARKGADEAALARAELEKRIDSLMDEISFLKKVHEEEIAELQAQIQYAQISVEMDVTKPDLSAALKDIRAQYEKLAAKNMQNAEEWFKSRFTVLTESAAKNTDAVRAAKDEVSESRRLLKAKTLEIEACRGMNEALEKQLQELEDKQNADISAMQDTINKLENELRTTKSEMARYLKEYQDLLNVKMALDIEIAAYRKLLEGEETRLSFTSVGSITSGYSQSSQVFGRSAYGGLQTSSYLMSTRSFPSYYTSHVQEEQIEVEETIEAAKAEEAKDEPPSEGEAEEEEKDKEEAEEEEAAEEEEAAKEESEEAKEEEEGGEGEEGEETKEAEEEEKKVEGAGEEQAAKKKD
For B1, the “other: NF-L phosphorylation” value (IP/IB, baseline) was “increases”, the oligomerisation [1] was “decreases” and the “other: suppression of mitochondrial motility” value [2] was “abolishes”.

B2: neurofilament-light (NF-L): OGT co-expression (protein)
parent chain: MSSFSYEPYYSTSYKRRYVETPRVHISSVRSGYSTARSAYSSYSAPVSSSLSVRRSYSSSSGSLMPSLENLDLSQVAAISNDLKSIRTQEKAQLQDLNDRFASFIERVHELEQQNKVLEAELLVLRQKHSEPSRFRALYEQEIRDLRLAAEDATNEKQALQGEREGLEETLRNLQARYEEEVLSREDAEGRLMEARKGADEAALARAELEKRIDSLMDEISFLKKVHEEEIAELQAQIQYAQISVEMDVTKPDLSAALKDIRAQYEKLAAKNMQNAEEWFKSRFTVLTESAAKNTDAVRAAKDEVSESRRLLKAKTLEIEACRGMNEALEKQLQELEDKQNADISAMQDTINKLENELRTTKSEMARYLKEYQDLLNVKMALDIEIAAYRKLLEGEETRLSFTSVGSITSGYSQSSQVFGRSAYGGLQTSSYLMSTRSFPSYYTSHVQEEQIEVEETIEAAKAEEAKDEPPSEGEAEEEEKDKEEAEEEEAAEEEEAAKEESEEAKEEEEGGEGEEGEETKEAEEEEKKVEGAGEEQAAKKKD
In the case of B2, the “other: NF-L phosphorylation” value (IP/IB) is reported as “decreases”, the oligomerisation [3] is reported as “decreases” and the oligomerisation [4] is reported as “decreases”.

B3: neurofilament-light (NF-L): NF-L5A (protein)
parent chain: MSSFSYEPYYSTSYKRRYVETPRVHISSVRSGYSTARSAYSSYSAPVSSSLSVRRSYSSSSGSLMPSLENLDLSQVAAISNDLKSIRTQEKAQLQDLNDRFASFIERVHELEQQNKVLEAELLVLRQKHSEPSRFRALYEQEIRDLRLAAEDATNEKQALQGEREGLEETLRNLQARYEEEVLSREDAEGRLMEARKGADEAALARAELEKRIDSLMDEISFLKKVHEEEIAELQAQIQYAQISVEMDVTKPDLSAALKDIRAQYEKLAAKNMQNAEEWFKSRFTVLTESAAKNTDAVRAAKDEVSESRRLLKAKTLEIEACRGMNEALEKQLQELEDKQNADISAMQDTINKLENELRTTKSEMARYLKEYQDLLNVKMALDIEIAAYRKLLEGEETRLSFTSVGSITSGYSQSSQVFGRSAYGGLQTSSYLMSTRSFPSYYTSHVQEEQIEVEETIEAAKAEEAKDEPPSEGEAEEEEKDKEEAEEEEAAEEEEAAKEESEEAKEEEEGGEGEEGEETKEAEEEEKKVEGAGEEQAAKKKD
For B3, the “other: NF-L phosphorylation” value (IP/IB, baseline) was “increases”.

B4: neurofilament-light (NF-L): S48A (protein)
parent chain: MSSFSYEPYYSTSYKRRYVETPRVHISSVRSGYSTARSAYSSYSAPVSSSLSVRRSYSSSSGSLMPSLENLDLSQVAAISNDLKSIRTQEKAQLQDLNDRFASFIERVHELEQQNKVLEAELLVLRQKHSEPSRFRALYEQEIRDLRLAAEDATNEKQALQGEREGLEETLRNLQARYEEEVLSREDAEGRLMEARKGADEAALARAELEKRIDSLMDEISFLKKVHEEEIAELQAQIQYAQISVEMDVTKPDLSAALKDIRAQYEKLAAKNMQNAEEWFKSRFTVLTESAAKNTDAVRAAKDEVSESRRLLKAKTLEIEACRGMNEALEKQLQELEDKQNADISAMQDTINKLENELRTTKSEMARYLKEYQDLLNVKMALDIEIAAYRKLLEGEETRLSFTSVGSITSGYSQSSQVFGRSAYGGLQTSSYLMSTRSFPSYYTSHVQEEQIEVEETIEAAKAEEAKDEPPSEGEAEEEEKDKEEAEEEEAAEEEEAAKEESEEAKEEEEGGEGEEGEETKEAEEEEKKVEGAGEEQAAKKKD
With B4 the oligomerisation [5] was “no change”.

B5: neurofilament-light (NF-L): T21A (protein)
parent chain: MSSFSYEPYYSTSYKRRYVETPRVHISSVRSGYSTARSAYSSYSAPVSSSLSVRRSYSSSSGSLMPSLENLDLSQVAAISNDLKSIRTQEKAQLQDLNDRFASFIERVHELEQQNKVLEAELLVLRQKHSEPSRFRALYEQEIRDLRLAAEDATNEKQALQGEREGLEETLRNLQARYEEEVLSREDAEGRLMEARKGADEAALARAELEKRIDSLMDEISFLKKVHEEEIAELQAQIQYAQISVEMDVTKPDLSAALKDIRAQYEKLAAKNMQNAEEWFKSRFTVLTESAAKNTDAVRAAKDEVSESRRLLKAKTLEIEACRGMNEALEKQLQELEDKQNADISAMQDTINKLENELRTTKSEMARYLKEYQDLLNVKMALDIEIAAYRKLLEGEETRLSFTSVGSITSGYSQSSQVFGRSAYGGLQTSSYLMSTRSFPSYYTSHVQEEQIEVEETIEAAKAEEAKDEPPSEGEAEEEEKDKEEAEEEEAAEEEEAAKEESEEAKEEEEGGEGEEGEETKEAEEEEKKVEGAGEEQAAKKKD
For B5, the oligomerisation [5] was “no change”.

B6: neurofilament-light (NF-L): S34A (protein)
parent chain: MSSFSYEPYYSTSYKRRYVETPRVHISSVRSGYSTARSAYSSYSAPVSSSLSVRRSYSSSSGSLMPSLENLDLSQVAAISNDLKSIRTQEKAQLQDLNDRFASFIERVHELEQQNKVLEAELLVLRQKHSEPSRFRALYEQEIRDLRLAAEDATNEKQALQGEREGLEETLRNLQARYEEEVLSREDAEGRLMEARKGADEAALARAELEKRIDSLMDEISFLKKVHEEEIAELQAQIQYAQISVEMDVTKPDLSAALKDIRAQYEKLAAKNMQNAEEWFKSRFTVLTESAAKNTDAVRAAKDEVSESRRLLKAKTLEIEACRGMNEALEKQLQELEDKQNADISAMQDTINKLENELRTTKSEMARYLKEYQDLLNVKMALDIEIAAYRKLLEGEETRLSFTSVGSITSGYSQSSQVFGRSAYGGLQTSSYLMSTRSFPSYYTSHVQEEQIEVEETIEAAKAEEAKDEPPSEGEAEEEEKDKEEAEEEEAAEEEEAAKEESEEAKEEEEGGEGEEGEETKEAEEEEKKVEGAGEEQAAKKKD
With B6 the oligomerisation [5] was “no change”.

B7: neurofilament-light (NF-L): S27A (protein)
parent chain: MSSFSYEPYYSTSYKRRYVETPRVHISSVRSGYSTARSAYSSYSAPVSSSLSVRRSYSSSSGSLMPSLENLDLSQVAAISNDLKSIRTQEKAQLQDLNDRFASFIERVHELEQQNKVLEAELLVLRQKHSEPSRFRALYEQEIRDLRLAAEDATNEKQALQGEREGLEETLRNLQARYEEEVLSREDAEGRLMEARKGADEAALARAELEKRIDSLMDEISFLKKVHEEEIAELQAQIQYAQISVEMDVTKPDLSAALKDIRAQYEKLAAKNMQNAEEWFKSRFTVLTESAAKNTDAVRAAKDEVSESRRLLKAKTLEIEACRGMNEALEKQLQELEDKQNADISAMQDTINKLENELRTTKSEMARYLKEYQDLLNVKMALDIEIAAYRKLLEGEETRLSFTSVGSITSGYSQSSQVFGRSAYGGLQTSSYLMSTRSFPSYYTSHVQEEQIEVEETIEAAKAEEAKDEPPSEGEAEEEEKDKEEAEEEEAAEEEEAAKEESEEAKEEEEGGEGEEGEETKEAEEEEKKVEGAGEEQAAKKKD
With B7 the oligomerisation [5] was “no change”.

B8: neurofilament-light (NF-L): S431A (protein)
parent chain: MSSFSYEPYYSTSYKRRYVETPRVHISSVRSGYSTARSAYSSYSAPVSSSLSVRRSYSSSSGSLMPSLENLDLSQVAAISNDLKSIRTQEKAQLQDLNDRFASFIERVHELEQQNKVLEAELLVLRQKHSEPSRFRALYEQEIRDLRLAAEDATNEKQALQGEREGLEETLRNLQARYEEEVLSREDAEGRLMEARKGADEAALARAELEKRIDSLMDEISFLKKVHEEEIAELQAQIQYAQISVEMDVTKPDLSAALKDIRAQYEKLAAKNMQNAEEWFKSRFTVLTESAAKNTDAVRAAKDEVSESRRLLKAKTLEIEACRGMNEALEKQLQELEDKQNADISAMQDTINKLENELRTTKSEMARYLKEYQDLLNVKMALDIEIAAYRKLLEGEETRLSFTSVGSITSGYSQSSQVFGRSAYGGLQTSSYLMSTRSFPSYYTSHVQEEQIEVEETIEAAKAEEAKDEPPSEGEAEEEEKDKEEAEEEEAAEEEEAAKEESEEAKEEEEGGEGEEGEETKEAEEEEKKVEGAGEEQAAKKKD
In the case of B8, the oligomerisation [5] is reported as “no change”.
